Reference: the supplement of paper PMC11136658

Tested on: peptide library, one residue held at a place counted from the Y acceptor
Experiment: relative phosphorylation of the sub-library (ratio to the mean residue at this position); higher = residue favoured
Method in brief: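 Within 384-well plates, purified recombinant kinases phosphorylated biotinylated Tyr-centred peptide library mixtures over 90 min using 50 μM ATP spiked with γ-32P-ATP; each mixture fixed one residue at one position from −5 to +5. Streptavidin membrane capture, rinsing, phosphorimaging and ImageQuant gave the intensities. These were normalized per position to the sum of the 18 randomized residues (16 for the Ser/Thr-free library) and multiplied by that number.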

ALK, construct: aa1058-end, human, sequence (Q9UM73 1058-1620, looked up): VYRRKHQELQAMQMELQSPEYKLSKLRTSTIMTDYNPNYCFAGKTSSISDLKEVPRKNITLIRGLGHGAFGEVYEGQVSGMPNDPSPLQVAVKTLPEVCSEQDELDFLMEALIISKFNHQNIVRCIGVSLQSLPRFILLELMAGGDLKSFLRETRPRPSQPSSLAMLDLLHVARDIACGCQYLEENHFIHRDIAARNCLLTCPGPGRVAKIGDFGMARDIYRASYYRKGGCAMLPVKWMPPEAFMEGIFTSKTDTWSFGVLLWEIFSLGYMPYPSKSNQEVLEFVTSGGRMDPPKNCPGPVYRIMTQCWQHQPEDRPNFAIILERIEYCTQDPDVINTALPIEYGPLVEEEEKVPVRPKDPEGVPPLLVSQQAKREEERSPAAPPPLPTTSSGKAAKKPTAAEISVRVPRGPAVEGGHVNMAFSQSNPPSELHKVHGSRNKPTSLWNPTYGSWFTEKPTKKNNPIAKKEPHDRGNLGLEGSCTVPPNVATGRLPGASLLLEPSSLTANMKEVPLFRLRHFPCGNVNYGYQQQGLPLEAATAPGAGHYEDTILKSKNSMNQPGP
ABL2, construct: aa38-end, human, sequence (P42684 38-1182, looked up): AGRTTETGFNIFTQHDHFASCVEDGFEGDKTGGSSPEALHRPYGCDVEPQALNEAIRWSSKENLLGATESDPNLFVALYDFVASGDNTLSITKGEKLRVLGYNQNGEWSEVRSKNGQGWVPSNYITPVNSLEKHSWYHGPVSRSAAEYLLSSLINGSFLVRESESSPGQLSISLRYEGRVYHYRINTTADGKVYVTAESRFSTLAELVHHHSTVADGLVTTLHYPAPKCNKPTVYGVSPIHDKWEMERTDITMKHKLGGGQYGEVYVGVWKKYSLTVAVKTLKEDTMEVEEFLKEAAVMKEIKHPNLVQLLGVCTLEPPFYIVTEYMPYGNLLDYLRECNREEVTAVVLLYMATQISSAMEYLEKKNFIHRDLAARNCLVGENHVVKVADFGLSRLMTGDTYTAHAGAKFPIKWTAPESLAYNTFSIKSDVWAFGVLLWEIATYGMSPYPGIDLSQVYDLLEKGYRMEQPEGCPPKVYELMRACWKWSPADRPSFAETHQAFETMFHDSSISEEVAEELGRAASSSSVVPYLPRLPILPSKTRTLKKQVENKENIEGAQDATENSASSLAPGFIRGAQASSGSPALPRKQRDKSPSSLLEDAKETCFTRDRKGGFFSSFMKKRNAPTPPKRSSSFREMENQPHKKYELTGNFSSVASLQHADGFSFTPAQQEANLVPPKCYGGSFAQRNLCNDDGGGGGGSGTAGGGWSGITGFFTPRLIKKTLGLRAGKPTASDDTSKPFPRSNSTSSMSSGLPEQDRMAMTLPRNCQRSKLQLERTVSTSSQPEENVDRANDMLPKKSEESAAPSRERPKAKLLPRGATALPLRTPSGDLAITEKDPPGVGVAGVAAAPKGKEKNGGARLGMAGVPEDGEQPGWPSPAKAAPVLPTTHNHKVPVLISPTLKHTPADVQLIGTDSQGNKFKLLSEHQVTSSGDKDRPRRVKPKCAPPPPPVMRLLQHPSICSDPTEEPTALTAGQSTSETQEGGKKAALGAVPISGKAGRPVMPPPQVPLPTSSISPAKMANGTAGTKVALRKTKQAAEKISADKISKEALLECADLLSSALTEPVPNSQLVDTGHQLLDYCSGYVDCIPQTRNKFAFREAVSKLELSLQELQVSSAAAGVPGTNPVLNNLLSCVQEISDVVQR

ABL2, construct: aa38-end, human (from UniProt P42684)
relative phosphorylation
Conditions | at +1 | at +2 | at +3 | at +4 | at +5 | at -1 | at -2 | at -3 | at -4 | at -5
A fixed | 2.85 | 1.32 | 0.871 | 0.935 | 1.01 | 0.717 | 1.18 | 1.04 | 1.16 | 1.1
D fixed | 0.701 | 0.534 | 0.245 | 0.662 | 0.681 | 1.01 | 1.01 | 1.23 | 1.32 | 1.07
E fixed | 0.884 | 1.2 | 0.199 | 0.735 | 0.686 | 1.45 | 1.38 | 1.88 | 1.69 | 1.13
F fixed | 1.07 | 0.802 | 1.21 | 1.18 | 0.822 | 0.756 | 0.548 | 0.786 | 0.675 | 0.828
G fixed | 1.26 | 0.647 | 1.23 | 1.2 | 1.27 | 0.49 | 1.24 | 1.15 | 1.33 | 1.29
H fixed | 1.06 | 0.833 | 0.868 | 1.13 | 1.02 | 1.62 | 0.933 | 1.02 | 0.859 | 1.12
I fixed | 0.517 | 0.843 | 1.46 | 0.736 | 0.781 | 2.9 | 0.867 | 0.598 | 0.774 | 0.716
K fixed | 0.636 | 0.836 | 0.439 | 1.2 | 1.15 | 0.425 | 0.846 | 0.785 | 0.926 | 1.01
L fixed | 0.857 | 0.904 | 1.47 | 0.813 | 0.85 | 1.55 | 0.885 | 0.758 | 0.87 | 0.831
M fixed | 1.18 | 0.923 | 0.861 | 1.04 | 1.05 | 1.05 | 0.742 | 0.852 | 0.907 | 0.909
N fixed | 0.492 | 1.06 | 0.756 | 0.988 | 1.02 | 0.674 | 1.11 | 1.25 | 0.871 | 1.27
P fixed | 0.161 | 1.14 | 2.59 | 0.968 | 1.57 | 0.556 | 1.36 | 1.26 | 1.34 | 1.24
Q fixed | 1.33 | 0.97 | 0.472 | 1.14 | 0.969 | 0.856 | 1.21 | 0.957 | 1.21 | 1.08
R fixed | 1.03 | 1.27 | 0.684 | 1.43 | 1.4 | 0.451 | 0.896 | 0.883 | 1.07 | 1.18
S fixed | 1.16 | 1.24 | 1.18 | 0.997 | 1.13 | 0.495 | 1.18 | 1.12 | 0.812 | 0.966
T fixed | 0.802 | 1.42 | 1.09 | 0.919 | 1.11 | 1.03 | 1.05 | 1.11 | 0.74 | 0.923
V fixed | 0.938 | 1.33 | 0.988 | 0.872 | 0.79 | 1.54 | 1.13 | 0.771 | 0.828 | 0.84
W fixed | 1.05 | 0.737 | 1.39 | 1.04 | 0.69 | 0.421 | 0.422 | 0.552 | 0.623 | 0.506
pThr fixed | 0.853 | 1.01 | 0.2 | 0.405 | 0.454 | 0.971 | 1.03 | 1.36 | 1.07 | 1.06
pTyr fixed | 1.61 | 1.79 | 0.391 | 0.696 | 0.52 | 3.96 | 1.26 | 1.9 | 1.49 | 1.26

ALK, construct: aa1058-end, human (from UniProt Q9UM73)
relative phosphorylation
Conditions | at +1 | at +2 | at +3 | at +4 | at +5 | at -1 | at -2 | at -3 | at -4 | at -5
A fixed | 1.39 | 0.79 | 0.525 | 0.758 | 0.82 | 0.976 | 1.09 | 0.931 | 1.23 | 1.06
D fixed | 0.468 | 0.286 | 0.207 | 0.721 | 0.44 | 1.42 | 0.92 | 1.09 | 1.01 | 1.01
E fixed | 1.42 | 0.713 | 0.206 | 0.871 | 0.407 | 0.955 | 1.02 | 1.42 | 1.22 | 0.887
F fixed | 1.04 | 1.16 | 1.55 | 1.34 | 2.19 | 1.08 | 0.732 | 1.05 | 1.02 | 1
G fixed | 0.495 | 0.403 | 0.445 | 0.805 | 0.774 | 0.349 | 1.06 | 1.06 | 1.27 | 1.15
H fixed | 1.15 | 0.762 | 1.14 | 1.17 | 0.806 | 1.02 | 1.18 | 0.992 | 0.88 | 0.985
I fixed | 1.59 | 1.17 | 3.08 | 0.994 | 1.43 | 2.22 | 1.08 | 0.683 | 0.817 | 0.925
K fixed | 0.398 | 0.982 | 0.401 | 0.984 | 0.661 | 0.353 | 0.998 | 1.04 | 0.956 | 1.15
L fixed | 1.24 | 1.44 | 1.22 | 0.906 | 1.55 | 1.64 | 0.915 | 0.81 | 0.954 | 0.983
M fixed | 2.11 | 1.42 | 1.78 | 1.16 | 1.38 | 0.903 | 0.871 | 0.901 | 0.918 | 0.977
N fixed | 0.472 | 0.837 | 0.496 | 0.855 | 0.697 | 1.31 | 0.952 | 1.2 | 0.882 | 1.09
P fixed | 0.296 | 0.934 | 0.476 | 0.939 | 1.54 | 1.06 | 1.11 | 1.1 | 1.29 | 1.21
Q fixed | 1.15 | 0.852 | 0.414 | 1.11 | 0.601 | 0.669 | 1.04 | 0.908 | 1.09 | 0.946
R fixed | 0.528 | 1.46 | 0.667 | 1.31 | 0.879 | 0.346 | 1.19 | 1.19 | 1.31 | 1.21
S fixed | 0.929 | 0.776 | 0.526 | 0.873 | 0.706 | 0.64 | 1.13 | 1.05 | 0.776 | 0.857
T fixed | 0.947 | 0.682 | 0.854 | 0.842 | 0.974 | 0.91 | 1.06 | 0.983 | 0.644 | 0.76
V fixed | 1.43 | 1.06 | 2.3 | 0.998 | 0.968 | 1.53 | 0.929 | 0.733 | 0.803 | 0.819
W fixed | 0.939 | 2.26 | 1.72 | 1.36 | 1.18 | 0.613 | 0.72 | 0.865 | 0.927 | 0.963
pThr fixed | 1.14 | 0.414 | 0.169 | 0.406 | 0.326 | 0.79 | 0.836 | 0.834 | 0.909 | 0.952
pTyr fixed | 1.35 | 1.01 | 0.343 | 1.03 | 0.309 | 3.63 | 1.06 | 1.14 | 1.17 | 1.06
